The record followed here is patent US20240141067A1 (RALLYBIO IPA, published 2024).

Some results are limits rather than exact numbers.

Assay [1] has as its target APLDQ GPIIIa (murine integrin β3 humanized to carry the HPA-1a epitope, in GPIIb-IIIa) on APLDQ mouse platelets (mouse) (UniProt O54890). The assay is described as follows: flow cytometry saturation-binding curves on APLDQ platelets.
Assay [2] has the same target. Nature of the assay: flow cytometry saturation-binding curve on APLDQ homozygous platelets. Background: A flow cytometer gives signals particle by particle.
Assay [3] addresses T1, HPA-1a (Leu33 form of human GPIIIa / integrin β3, in GPIIb-IIIa) on HPA-1a/a human platelets (human, UniProt P05106 27-788; P08514 32-1039).
T1 construct: whole, on cells; Native antigen on washed platelets from HPA-1a/a individuals; also called HPA-1a alloantigen; HPA-1a expressed on GPIIIa
The assay is described as follows: flow cytometry on washed human platelets, FITC goat anti-human IgG.

APLDQ GPIIIa (murine integrin β3 humanized to carry the HPA-1a epitope, in GPIIb-IIIa) on APLDQ mouse platelets (mouse), sequence (O54890 26-787, chain 1 of 2): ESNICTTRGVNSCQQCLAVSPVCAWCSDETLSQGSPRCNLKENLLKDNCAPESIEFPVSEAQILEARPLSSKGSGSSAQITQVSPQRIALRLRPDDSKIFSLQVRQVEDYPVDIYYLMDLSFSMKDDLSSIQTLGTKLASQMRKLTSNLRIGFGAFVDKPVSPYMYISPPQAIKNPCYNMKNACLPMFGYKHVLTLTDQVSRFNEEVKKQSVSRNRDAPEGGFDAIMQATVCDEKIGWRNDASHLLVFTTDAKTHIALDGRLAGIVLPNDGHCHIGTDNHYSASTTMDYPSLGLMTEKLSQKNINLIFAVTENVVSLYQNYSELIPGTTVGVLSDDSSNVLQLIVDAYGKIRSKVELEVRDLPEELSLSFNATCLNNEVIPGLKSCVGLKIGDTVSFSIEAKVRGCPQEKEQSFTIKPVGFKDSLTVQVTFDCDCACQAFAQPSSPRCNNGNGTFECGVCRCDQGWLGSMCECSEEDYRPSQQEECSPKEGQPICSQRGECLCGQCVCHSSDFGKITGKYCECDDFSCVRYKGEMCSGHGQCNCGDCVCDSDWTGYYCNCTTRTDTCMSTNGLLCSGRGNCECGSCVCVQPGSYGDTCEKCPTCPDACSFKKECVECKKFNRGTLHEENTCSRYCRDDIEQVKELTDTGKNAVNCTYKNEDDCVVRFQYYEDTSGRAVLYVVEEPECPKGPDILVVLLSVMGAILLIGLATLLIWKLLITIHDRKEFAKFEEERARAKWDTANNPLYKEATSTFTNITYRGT
APLDQ GPIIIa (murine integrin β3 humanized to carry the HPA-1a epitope, in GPIIb-IIIa) on APLDQ mouse platelets (mouse), sequence (Q9QUM0 32-1033, chain 2 of 2, further chain): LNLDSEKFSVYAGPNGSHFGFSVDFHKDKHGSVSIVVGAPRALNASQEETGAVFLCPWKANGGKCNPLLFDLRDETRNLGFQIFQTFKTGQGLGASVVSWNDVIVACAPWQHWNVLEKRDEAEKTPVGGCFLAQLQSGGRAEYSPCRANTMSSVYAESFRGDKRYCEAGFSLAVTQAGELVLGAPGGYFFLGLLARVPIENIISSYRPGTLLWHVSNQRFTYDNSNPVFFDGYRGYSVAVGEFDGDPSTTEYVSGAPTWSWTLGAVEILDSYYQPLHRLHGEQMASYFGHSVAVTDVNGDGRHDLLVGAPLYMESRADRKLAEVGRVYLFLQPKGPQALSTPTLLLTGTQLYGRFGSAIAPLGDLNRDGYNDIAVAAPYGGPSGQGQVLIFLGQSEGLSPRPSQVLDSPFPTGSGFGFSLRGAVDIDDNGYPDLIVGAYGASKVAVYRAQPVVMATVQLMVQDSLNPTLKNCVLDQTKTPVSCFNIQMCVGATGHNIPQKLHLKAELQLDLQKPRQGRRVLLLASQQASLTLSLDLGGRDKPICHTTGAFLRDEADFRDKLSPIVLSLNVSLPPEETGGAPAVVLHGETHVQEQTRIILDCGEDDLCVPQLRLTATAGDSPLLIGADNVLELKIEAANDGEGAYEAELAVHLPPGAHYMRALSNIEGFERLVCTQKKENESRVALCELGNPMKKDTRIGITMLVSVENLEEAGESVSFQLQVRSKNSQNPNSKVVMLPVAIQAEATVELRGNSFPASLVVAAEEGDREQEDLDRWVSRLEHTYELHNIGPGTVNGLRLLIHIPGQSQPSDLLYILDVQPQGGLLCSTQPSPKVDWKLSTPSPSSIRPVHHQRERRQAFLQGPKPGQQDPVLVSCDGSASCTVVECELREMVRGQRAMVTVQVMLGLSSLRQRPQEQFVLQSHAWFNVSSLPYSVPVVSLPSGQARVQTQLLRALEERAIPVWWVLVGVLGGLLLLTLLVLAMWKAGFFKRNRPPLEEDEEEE
T1 sequence (P05106 27-788, chain 1 of 2): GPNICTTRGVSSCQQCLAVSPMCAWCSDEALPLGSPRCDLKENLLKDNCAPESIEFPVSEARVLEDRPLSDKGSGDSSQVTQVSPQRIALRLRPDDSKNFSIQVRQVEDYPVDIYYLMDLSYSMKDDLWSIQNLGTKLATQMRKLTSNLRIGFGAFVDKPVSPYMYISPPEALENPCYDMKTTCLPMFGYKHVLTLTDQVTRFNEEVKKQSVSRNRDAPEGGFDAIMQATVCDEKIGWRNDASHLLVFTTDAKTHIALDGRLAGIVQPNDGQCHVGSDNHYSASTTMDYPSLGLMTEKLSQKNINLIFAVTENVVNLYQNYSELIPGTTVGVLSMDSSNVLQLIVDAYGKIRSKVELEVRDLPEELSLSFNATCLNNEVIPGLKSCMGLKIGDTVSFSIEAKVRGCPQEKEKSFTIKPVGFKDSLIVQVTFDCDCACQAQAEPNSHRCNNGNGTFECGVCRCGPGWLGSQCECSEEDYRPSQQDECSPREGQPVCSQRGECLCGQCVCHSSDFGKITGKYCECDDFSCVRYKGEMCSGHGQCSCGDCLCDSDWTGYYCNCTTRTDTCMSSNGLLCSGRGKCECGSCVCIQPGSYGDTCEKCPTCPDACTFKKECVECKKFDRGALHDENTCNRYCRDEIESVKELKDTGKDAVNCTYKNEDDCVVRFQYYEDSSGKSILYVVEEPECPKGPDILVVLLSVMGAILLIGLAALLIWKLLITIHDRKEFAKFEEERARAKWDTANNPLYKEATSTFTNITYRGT
T1 sequence (P08514 32-1039, chain 2 of 2): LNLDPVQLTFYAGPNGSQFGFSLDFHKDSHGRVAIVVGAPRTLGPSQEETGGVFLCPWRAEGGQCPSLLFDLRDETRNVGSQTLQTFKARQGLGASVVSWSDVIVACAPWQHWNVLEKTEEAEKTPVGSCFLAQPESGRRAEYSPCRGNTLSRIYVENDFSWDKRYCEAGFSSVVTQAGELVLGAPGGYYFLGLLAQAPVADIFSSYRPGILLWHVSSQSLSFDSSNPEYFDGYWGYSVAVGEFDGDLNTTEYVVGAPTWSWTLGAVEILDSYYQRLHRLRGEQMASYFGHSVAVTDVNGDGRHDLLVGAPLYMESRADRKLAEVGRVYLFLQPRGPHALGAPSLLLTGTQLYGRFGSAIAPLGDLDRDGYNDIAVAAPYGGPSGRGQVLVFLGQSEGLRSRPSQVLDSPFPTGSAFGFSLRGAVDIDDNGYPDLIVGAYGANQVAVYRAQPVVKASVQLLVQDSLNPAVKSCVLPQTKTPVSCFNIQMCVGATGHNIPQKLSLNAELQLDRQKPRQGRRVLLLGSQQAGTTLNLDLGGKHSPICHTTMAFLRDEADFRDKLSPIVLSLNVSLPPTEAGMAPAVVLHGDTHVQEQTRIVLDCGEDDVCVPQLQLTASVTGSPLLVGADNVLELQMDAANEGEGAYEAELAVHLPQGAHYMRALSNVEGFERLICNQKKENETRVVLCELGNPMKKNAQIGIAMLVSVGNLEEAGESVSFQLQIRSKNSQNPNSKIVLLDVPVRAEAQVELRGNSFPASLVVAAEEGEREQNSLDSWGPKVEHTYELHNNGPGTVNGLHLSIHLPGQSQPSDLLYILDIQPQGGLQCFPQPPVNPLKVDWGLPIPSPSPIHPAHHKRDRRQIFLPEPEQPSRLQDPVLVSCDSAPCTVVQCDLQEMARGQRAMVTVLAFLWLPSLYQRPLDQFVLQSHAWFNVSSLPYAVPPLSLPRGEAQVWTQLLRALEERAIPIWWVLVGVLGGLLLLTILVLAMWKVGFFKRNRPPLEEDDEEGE

In assay [1], RLYB211 (antibody) displayed an occupancy of available GPIIb-IIIa receptors at ~4 IU/mL of less than 10%.

B1: RLYB212 (antibody, human IgG1, kappa, V domains shown)
VH: QVQLQQSGPGLVKPSQTLSLTCAISGDSVSSNSAAWNWIRQSPSRGLEWLGRTYFRSNWYNDYAASVKSRITINQDTSKNQLSLQLNSVTPEDTAVYYCARDGAWGGSSWWPGLPHHYYSGMDVWGQGTTVTVSS
VL: EIVLTQSPATLSLSPGERATLSCRASQSVSSYLAWYQQKPGQAPRLLIYDASKRATGIPARFSGSGSGTDFSLTIRSLEPEDFAVYYCQQRSDWQGLTFGGGTKVEIKR
notes: also called monoclonal RLYB212; monospecific monoclonal antibody RLYB212
Consider B1, for which, in assay [2], the concentration that fully saturates GPIIb-IIIa receptors was greater than 100 IU/ml. In assay [1], this molecule displayed an occupancy of available GPIIb-IIIa receptors at ~4 IU/mL of less than 10%. The binding result in assay [3] is on record as “binds”.
